Data reported in patent US20150307603A1 (MODIQUEST B V, published 2015).
Non-standard residues stand in square brackets, D forms with d. No end group written: not given here. Cit = NC(=O)NCCC[C@H](N)C(=O)O

Experiments:
[1] = target: T1, huPAD4-deiminated human recombinant histone 2B (human); experiment: ELISA, Ab 10 ug/well
T1 construct: also called H2B/p4
From the text: The resulting OD (y-axis) is a measure for antibody binding. H1-recombinant histone 1; H1/p2-huPAD2 recombinant histone 1; H1/p4-huPAD4 recombinant histone 1, and so forth (x-axis).

[2] = target: T2, CFC-1; experiment: ELISA, Ab 0.0032 ug/well
T2 construct: Positive control for anti-citrulline reactivity; also called cfc1 XG; Cfc1-peptide
Experimental: (§1) Biotin and citrulline-containing peptides derived from histone 2A were immobilized on NEUTRAVIDIN®-coated 96-well ELISA plates (0.3 μg/well). CFC-1 and CFC-0 were coated at the same concentration and served as positive and negative controls, respectively, for specific anti-citrulline reactivity and as coating controls. Non-coated wells were used to test for aspecific binding of the antibodies. […] Detection of bound anti-citrulline antibodies was performed by incubating the wells with rabbit anti-human HRP (1:2000) for 1 hour at RT followed by incubation with TMB substrate. The resulting OD (y-axis) is a measure for antibody binding.

[3] = target: T3, peptide no. 1 (human histone 2A) (human, also: biotin-labelled); experiment: ELISA, Ab 0.0032 ug/well
T3 construct: also called peptide 1; AAASGXGKQGGK
T3 peptide: AAASG[Cit]GKQGGK
Experimental: as §1

[4] = target: T4, peptide no. 4 (human histone 2A) (human, also: biotin-labelled); experiment: ELISA, Ab 0.0032 ug/well
T4 construct: also called peptide 4
T4 peptide: QFPVG[Cit]VHRLLR
Experimental: as §1

[5] = target: T5, peptide no. 5 (human histone 2A) (human, also: biotin-labelled); experiment: ELISA, Ab 0.0032 ug/well
T5 construct: also called peptide 5
T5 peptide: VGRVH[Cit]LLRKGN
Experimental: as §1

[6] = target: T6, peptide no. 7 (human histone 2A) (human, also: biotin-labelled); experiment: ELISA, Ab 0.0032 ug/well
T6 construct: also called peptide 7
T6 peptide: GNYSE[Cit]VGAGAP
Experimental: as §1

[7] = target: T7, peptide no. 8 (human histone 2A) (human, also: biotin-labelled); experiment: ELISA, Ab 0.0032 ug/well
T7 construct: also called peptide 8
T7 peptide: AGNAA[Cit]DNKKTR
Experimental: as §1

[8] = target: T8, peptide no. 10 (human histone 2A) (human, also: biotin-labelled); experiment: ELISA, Ab 0.0032 ug/well
T8 construct: also called peptide 10
T8 peptide: TRIIP[Cit]HLQLAI
Experimental: as §1

[9] = target: T9, peptide no. 11 (human histone 2A) (human, also: biotin-labelled); experiment: ELISA, Ab 0.0032 ug/well
T9 construct: also called peptide 11
T9 peptide: LQLAI[Cit]NDEELN
Experimental: as §1

[10] = target: T10, peptide no. 12 (human histone 2A) (human, also: biotin-labelled); experiment: ELISA, Ab 0.0032 ug/well
T10 construct: also called peptide 12
T10 peptide: NKLLG[Cit]VTIAQG
Experimental: as §1

[11] = target: T2, CFC-1; experiment: ELISA, Ab 0.00064 ug/well
Experimental: as §1

[12] = target: T3, peptide no. 1 (human histone 2A); experiment: ELISA, Ab 0.00064 ug/well
Experimental: as §1

[13] = target: T11, peptide no. 2 (human histone 2A) (human, also: biotin-labelled); experiment: ELISA, Ab 0.00064 ug/well
T11 construct: also called peptide 2
T11 peptide: AKAKS[Cit]SSRAGL
Experimental: as §1

[14] = target: T4, peptide no. 4 (human histone 2A); experiment: ELISA, Ab 0.00064 ug/well
Experimental: as §1

[15] = target: T5, peptide no. 5 (human histone 2A); experiment: ELISA, Ab 0.00064 ug/well
Experimental: as §1

[16] = target: T6, peptide no. 7 (human histone 2A); experiment: ELISA, Ab 0.00064 ug/well
Experimental: as §1

[17] = target: T7, peptide no. 8 (human histone 2A); experiment: ELISA, Ab 0.00064 ug/well
Experimental: as §1

[18] = target: T12, peptide no. 9 (human histone 2A) (human, also: biotin-labelled); experiment: ELISA, Ab 0.00064 ug/well
T12 construct: also called peptide 9
T12 peptide: DNKKT[Cit]IIPRHL
Experimental: as §1

[19] = target: T9, peptide no. 11 (human histone 2A); experiment: ELISA, Ab 0.00064 ug/well
Experimental: as §1

B1: RhmAb2.102 (antibody, human IgG1, lambda)
heavy: not shown
light: QSVLTQPPSMSAAPGQKVTISCSGSSSNIGNNYVSWYQQVPGTAPKLLIYDDNKRPSGIPGRFSGSKSATSATLGITGLQAGDEADYYCGSWDDNLSVVLFGGGTKLTVLGQPKAAPSVTLFPPSSEELQANKATLVCLISDFYPGAVTVAWKADSSPVKAGVETTTPSKQSNNKYAASSYLSLTPEQWKSHRSYSCQVTHEGSTVEKTVAPTECS
notes: Human IgG1 lambda; also called Rhm2.102
- OD [1]: 0.229 OD450
- OD [2]: 0.916 OD450
- OD [3]: 0.3 OD450
- OD [4]: 0.078 OD450
- OD [5]: 0.063 OD450
- OD [6]: 0.064 OD450
- OD [7]: 0.06 OD450
- OD [8]: 0.068 OD450
- OD [9]: 0.057 OD450
- OD [10]: 0.059 OD450
- OD [11]: 0.621 OD450
- OD [12]: 0.16 OD450
- OD [13]: 0.055 OD450
- OD [14]: 0.063 OD450
- OD [15]: 0.067 OD450
- OD [16]: 0.057 OD450
- OD [17]: 0.057 OD450
- OD [18]: 0.059 OD450
- OD [19]: 0.06 OD450
